How the values were obtained:
[1] = target: anti-Bla g 1 scFv (chicken); experiment: crystal structure
[2] = target: rBla g 1-EC (combined with the scFv for crystallography) (Blattella germanica, UniProt Q9UAM5); experiment: SEC
[3] = target: rBla g 1-EC T80A, with GST tag (Blattella germanica, UniProt Q9UAM5, point mutant); experiment: ELISA
[4] = target: rBla g 1-EC V83A, with GST tag (Blattella germanica, UniProt Q9UAM5, point mutant); experiment: ELISA
[5] = target: rBla g 1-EC N93A, with GST tag (Blattella germanica, UniProt Q9UAM5, point mutant); experiment: ELISA
[6] = target: rBla g 1-EC N96A, with GST tag (Blattella germanica, UniProt Q9UAM5, point mutant); experiment: ELISA
[7] = target: rBla g 1-EC N104A, with GST tag (Blattella germanica, UniProt Q9UAM5, point mutant); experiment: ELISA
[8] = target: rBla g 1-EC D107A, with GST tag (Blattella germanica, UniProt Q9UAM5, point mutant); experiment: ELISA
[9] = target: rBla g 1-EC H113A, with GST tag (Blattella germanica, UniProt Q9UAM5, point mutant); experiment: ELISA
[10] = target: rBla g 1-EC E161A, with GST tag (Blattella germanica, Bla g 1.0101, UniProt Q9UAM5, point mutant); experiment: ELISA
[11] = target: rBla g 1-EC Q183A, with GST tag (Blattella germanica, Bla g 1.0101, UniProt Q9UAM5, point mutant); experiment: ELISA
[12] = target: rBla g 1-EC N193A, with GST tag (Blattella germanica, Bla g 1.0101, UniProt Q9UAM5, point mutant); experiment: ELISA
[13] = target: rBla g 1-EC E200A, with GST tag (Blattella germanica, UniProt Q9UAM5, point mutant); experiment: ELISA
[14] = target: rBla g 1-EC Q41A, with GST tag (Blattella germanica, UniProt Q9UAM5, point mutant); experiment: ELISA
[15] = target: rBla g 1-EC D50A, with GST tag (Blattella germanica, UniProt Q9UAM5, point mutant); experiment: ELISA
[16] = target: rBla g 1-EC I53A, with GST tag (Blattella germanica, UniProt Q9UAM5, point mutant); experiment: ELISA
[17] = target: rBla g 1-EC L60A, with GST tag (Blattella germanica, UniProt Q9UAM5, point mutant); experiment: ELISA
[18] = target: rBla g 1-EC D76A, with GST tag (Blattella germanica, UniProt Q9UAM5, point mutant); experiment: ELISA
[19] = target: rBla g 1-EC E79A, with GST tag (Blattella germanica, UniProt Q9UAM5, point mutant); experiment: ELISA

B1: anti-Bla g 1 scFv (scFv, V domains shown)
VH: AVTLDESGGGLQTPGGALSLVCKASGFTFSVYDMMWVRQAPSKGLEWVAGIGITGSTYYASAVKGRATISRDNGQSTVRLQLNNLRAEDTGTYYCARGGAYSINKLDTWGQGTEVIVSS
VL: QAALTQPSSVSANPGETVKITCSGGGSSSNYGWFQQKSPGSAPVTVIYNNNNRPSDIPSRFSGSKSGSTATLTITGVQADDEAVYFCGGRDSTYAGMFGAGTTLTVL
For B1, the stoichiometry N [1] was 2, the “stoichiometry N” value [2] was 1 Bla g 1 per scFv (printed as 2:2) and the “ΔΔG against wild type (RT ln(IC50 WT/IC50 mutant))” value [3] was -1.7 kCal/mol. For the same binder, the “ΔΔG against wild type (RT ln(IC50 WT/IC50 mutant))” value [4] was -0.33 kCal/mol, the “ΔΔG against wild type (RT ln(IC50 WT/IC50 mutant))” value [5] was 0.31 kCal/mol and the “ΔΔG against wild type (RT ln(IC50 WT/IC50 mutant))” value [6] was 0.33 kCal/mol. The “ΔΔG against wild type (RT ln(IC50 WT/IC50 mutant))” value [7] was 0.4 kCal/mol, the “ΔΔG against wild type (RT ln(IC50 WT/IC50 mutant))” value [8] was 0.13 kCal/mol and the “ΔΔG against wild type (RT ln(IC50 WT/IC50 mutant))” value [9] was 0.09 kCal/mol. For the same binder, the “ΔΔG against wild type (RT ln(IC50 WT/IC50 mutant))” value [10] was 0.33 kCal/mol, the “ΔΔG against wild type (RT ln(IC50 WT/IC50 mutant))” value [11] was 0.33 kCal/mol and the “ΔΔG against wild type (RT ln(IC50 WT/IC50 mutant))” value [12] was -2.1 kCal/mol. For the same binder, the “ΔΔG against wild type (RT ln(IC50 WT/IC50 mutant))” value [13] was -0.02 kCal/mol, the “ΔΔG against wild type (RT ln(IC50 WT/IC50 mutant))” value [14] was -0.05 kCal/mol and the “ΔΔG against wild type (RT ln(IC50 WT/IC50 mutant))” value [15] was 0.06 kCal/mol. For the same binder, the “ΔΔG against wild type (RT ln(IC50 WT/IC50 mutant))” value [16] was 0.09 kCal/mol, the “ΔΔG against wild type (RT ln(IC50 WT/IC50 mutant))” value [17] was 0 kCal/mol and the “ΔΔG against wild type (RT ln(IC50 WT/IC50 mutant))” value [18] was -1.1 kCal/mol. For the same binder, the “ΔΔG against wild type (RT ln(IC50 WT/IC50 mutant))” value [19] was -1.2 kCal/mol.

Reference: article PMC4097036 (Molecular immunology, 2014)
